Experimental data as given in publication PMC10987540, “Biogenesis of Rab14-positive endosome buds at Golgi–endosome contacts by the RhoBTB3–SHIP164–Vps26B complex” (Cell Discovery, 2024).

Target: T1, GST-SHIP164-CT (residues 1063–1364) (UniProt A0JNW5 1063-1364)
T1 construct: SHIP164, fragment of the C-terminal region, residues 1063-1364; also called purified SHIP164-CT fragment (residues 1063–1364); source: TSsetta (DE3) cells, purified (GST-tag resin)
Test: pull-down; GST pull-down: purified GST protein on GST tag resin, His fusion protein added, 12 h at 4 °C, HNM buffer (20 mM HEPES pH 7.4, 100 mM NaCl, 5 mM MgCl2, 1 mM DTT, 0.2% NP-40); blot with anti-GST or His antibodies
Details: both partners purified

T1 sequence (A0JNW5 1063-1364): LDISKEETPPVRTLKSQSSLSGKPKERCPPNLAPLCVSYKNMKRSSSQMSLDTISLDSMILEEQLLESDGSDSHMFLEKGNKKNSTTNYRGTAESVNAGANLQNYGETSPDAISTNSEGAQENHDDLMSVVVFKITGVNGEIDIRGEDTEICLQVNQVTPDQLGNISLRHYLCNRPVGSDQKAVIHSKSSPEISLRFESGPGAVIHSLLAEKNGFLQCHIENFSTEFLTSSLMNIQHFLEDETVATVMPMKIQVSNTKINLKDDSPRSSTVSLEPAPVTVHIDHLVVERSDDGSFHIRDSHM

B1: His-Vps26B-NT (residues 1–160) (domain or fragment, UniProt Q4G0F5 1-160, looked up)
chain: MSFFGFGQSVEVEILLNDAESRKRAEHKTEDGKKEKYFLFYDGETVSGKVSLALKNPNKRLEHQGIKIEFIGQIELYYDRGNHHEFVSLVKDLARPGEITQSQAFDFEFTHVEKPYESYTGQNVKLRYFLRATISRRLNDVVKEMDIVVHTLSTYPELNS
notes: Vps26B N-terminal region, residues 1-160; also called His-Vps26B NT region; purified Vps26B-NT fragment; source: TSsetta (DE3) cells, purified (Ni-NTA resin)
Does B1 bind?
Result: binds
